# Test results taken from patent US12331106B2, “Anti-angiopoietin-2 antibodies that induce Tie2 activation” (Institute for Basic Science, priority 2018, dated 2025).
# T1: hAng2 (Homo sapiens, UniProt O15123)
# T1 sequence (O15123 19-496): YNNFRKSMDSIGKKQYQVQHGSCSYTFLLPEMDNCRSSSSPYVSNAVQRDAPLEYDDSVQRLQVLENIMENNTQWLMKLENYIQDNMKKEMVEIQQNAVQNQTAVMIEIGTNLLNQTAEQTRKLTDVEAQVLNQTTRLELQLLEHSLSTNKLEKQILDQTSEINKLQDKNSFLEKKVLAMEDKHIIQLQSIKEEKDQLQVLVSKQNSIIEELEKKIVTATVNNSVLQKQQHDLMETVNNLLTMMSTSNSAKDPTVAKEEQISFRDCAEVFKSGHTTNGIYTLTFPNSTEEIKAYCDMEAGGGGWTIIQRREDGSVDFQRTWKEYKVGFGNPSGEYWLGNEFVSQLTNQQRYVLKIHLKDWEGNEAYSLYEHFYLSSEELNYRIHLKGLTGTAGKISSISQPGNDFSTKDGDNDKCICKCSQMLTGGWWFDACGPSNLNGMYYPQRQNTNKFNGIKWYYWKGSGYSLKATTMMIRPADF
# Legend:
# [1] = test system: LLC (Lewis Lung Carcinoma) tumor; test: Tumor growth inhibition in LLC subcutaneous model; format: in vivo, C57BL/6 mice; conditions: LLC s.c.; antibody 10 mg/kg i.p. every 2-3 days; Cpt 3 mg/kg i.p. once
# Experimental: 2C8H11 anti-Ang2 antibody was tested for its ability to inhibit tumor growth in LLC (Lewis Lung Carcinoma) cell line tumor model. Specifically, LLC cell line (ATCC) was cultured in DMEM (GIBCO™) supplemented with 10% FBS (GIBCO™). LLC cells (1×10^6 in 100 μl of PBS) were subcutaneously injected into 6˜8-week-old C57BL/6 mice (Jackson Laboratory) which were anesthetized with a mixture of Ketamine and Xylazine. When the volume of the tumors reached 50˜100 mm^3, the mice were intraperitoneally administered with 10 mg/kg of 2C8H11 antibody every 2˜3 days. Cisplatin (Cpt) was injected intraperitoneally once at a dose of 3 mg/kg in both monotherapy and combination therapy groups. The changes in tumor volume was tracked over the following days. Tumor volume (V) was measured using the formula: V=(width^2×length)/2 V=(width^2×length)/2
# The experiment was performed in 4 groups: Fc (control group), Fc+Cpt group, 2C8H11 group, and 2C8H11+Cpt group. […] Meanwhile, combined treatment with 2C8H11 and Cpt delayed tumor growth by 47% compared with Fc.
# [2] = test system: downstream signaling of the Tie2 receptor (Akt phosphorylation) in HUVECs; test: Akt phosphorylation in HUVECs by humanized anti-Ang2 antibodies (immunoblot); format: cell-based, human; conditions: hAng2 1 μg/ml, 30 min, antibody 0.5 μg/ml, maintained until 50 μg/ml
# Experimental: To investigate whether the humanized anti-Ang2 antibodies induce the downstream signaling of the Tie2 receptor in endothelial cells, HUVECs (LONZA™) were treated with human Ang2 protein together with humanized anti-Ang2 antibody. Then, the level of Akt phosphorylation, the main downstream signaling protein of Tie2 receptor was measured by immunoblotting. To compare the degree of Akt activation, cells were treated with full-length hAng2 (R&D® Systems) alone or antibody alone in the experiment.
# Specifically, HUVEC cells (1×10^5 cells/ml) were cultured in EGM-2 (LONZA™) at 37° C. in 60 mm culture dish. Cells of 90% confluency were incubated with EBM-2 (LONZA™) for 4 hrs. The serum-starved HUVECs were treated with the mixture of anti-Ang2 antibody and hAng2 protein (1 μg/ml, R&D® Systems), and further incubated for 30 min. The cells were washed with cold PBS, treated with lysis buffer, and lysed at 4° C. for 20 min. Then, the cell lysates were prepared by centrifugation at 13000 rpm for 15 min. 5× SDS sample buffer was added to the cell lysate and the mixture was boiled at 95° C. for 5 min. Then, the mixture was subjected to SDS-PAGE and subsequent Western blotting.
# To investigate the phosphorylation of Akt, the membrane was blocked with 5% skim milk-containing TBST for 1 hr at RT, and incubated with anti-phospho-Akt antibody (S473) at 4° C. for about 8 hrs. […]
# Tie2 receptor = test: Tie2 phosphorylation in HUVECs (immunoprecipitation/Western); format: cell-based, human; conditions: antibody 0.02-50 μg/ml with hAng2 1 μg/ml, 30 min
# Experimental: Ang2 binds to the Tie2 receptor and acts as a weak agonist or antagonist. The anti-Ang2 antibody developed in this invention binds to Ang2 to induce Ang2-antibody complexes, further causing clustering of Tie2 receptors and consequently enhancing activation of Tie2 receptor. Experiments were conducted to analyze the effect of anti-Ang2 antibody on Tie2 phosphorylation using HUVECs.
# Specifically, HUVECs (LONZA™) were cultured in EGM-2 (LONZA™) at 37° C. and 5% CO2 concentration in a 100 mm culture dish. At 80-90% confluency, the cells were changed to EBM-2 (LONZA™) medium for 2 hrs˜ 6 hrs for serum starvation. Humanized anti-Ang2 antibodies at various concentrations (0.02 μg/ml to 50 μg/ml) were mixed with hAng2 protein (1 μg/ml, R&D® Systems) for 30 min. Then, the mixtures were treated with the cultured cells and further incubated for 30 min. The cells were washed twice with cold PBS and then lysed in 1000 μl of lysis buffer (10 mM Tris-Cl pH 7.4, 150 mM NaCl, 5 mM EDTA, 10% glycerol, 1% TRITON™ X-100 (non-ionic polyoxyethylene surfactant), protease inhibitor, phosphatase inhibitor) and then lysed at 4° C. for 60 min. Cell extracts were prepared and centrifuged at 12,000 rpm for 10 min. The supernatant was quantitated by bicinchoninic (BCA) assay.
# To 0.5 mg of cell lysate, 1 μg of Tie2 antibody (R&D® Systems, AF313) was added and incubated overnight at 4° C. […]
# [3] = test system: Tie2 receptor clustering / FOXO1 translocation in HUVECs; test: Tie2 clustering and FOXO1 translocation in HUVECs (immunofluorescence); format: cell-based, human; conditions: HUVECs, 30 min
# Experimental: Tie2 clustering at cell-cell junction area and FOXO1 translocation from nucleus to cytosol by anti-Ang2 antibodies were examined in HUVECs by immunofluorescence. Specifically, HUVECs were seeded on 8 well slide chamber (Lab-Tek™ II) and maintained in EGM-2 medium for 2-3 days. At 100% confluence, the cells were serum starved with EBM-2 medium for 4 hrs and then treated with 1 μg/ml anti-Ang2 antibodies together with 1 μg/ml of hAng2 for 30 min. Thereafter, the cells were fixed with 4% formaldehyde in PBS at room temperature (RT) for 10 min, permeabilized with 0.1% TRITON™ X-100 (non-ionic polyoxyethylene surfactant) in PBS, blocked with 1% BSA in PBS at RT for 60 min, and incubated with primary antibodies at RT for 1 hr. The primary antibodies for hTie2, FOXO1, and Human Fc were used. The cells were then incubated with secondary antibodies (Invitrogen) in the dark at RT for 1 hr and mounted with VECTASHIELD® mounting medium with DAPI (Vector Labs, antifade mounting media optimized for immunofluorescence applications). Images were taken with a laser scanning confocal microscope (LSM880, Carl Zeiss).
# 2C8H11-induced Tie2 clustering and FOXO1 translocation was examined in a time-course study (from 10 min to 240 min). […] 6-4: Inhibition of Vascular Permeability by Humanized Anti-Ang2 Antibodies
# HUVEC monolayer = test: In vitro vascular permeability (leakage) assay, TNF-α induced, FITC-dextran; format: cell-based, human; conditions: HUVECs; pre-treatment antibody 1 μg/ml with Ang2 1 μg/ml 30 min; TNF-α 100 ng/ml 22 hr
# Experimental: Vascular leakage assay was carried out in HUVECs using In Vitro Vascular Permeability Assay Kit (Millipore®) according to the manufacturer's instruction. HUVECs were seeded into the insert of the transwell plate and cultured for 3 days for 100% confluence. The HUVECs were pre-incubated with Ang2 (1 μg/ml), Ang2 (1 μg/ml) together with Control, 2C8H11 or 4B9H11 antibody (1 μg/ml) for 30 min, and then TNF-α (100 ng/ml) was added, and the cells were incubated at 37° C. for 22 hr. FITC-dextran was added to the upper chamber and incubated for 20 min. Passage of FITC-dextran though the HUVEC monolayer was measured by a fluorescence reader at excitation and emission wavelengths of 485 and 535 nm, respectively.
# hAng2 = target: T1, hAng2; test: OCTET affinity of humanized anti-Ang2 antibodies against hAng2; format: binding; conditions: humanized 4B9 antibodies (IgG1) fixed on AR2G biosensor; hAng2 50-0 nM
Akt phosphorylation [2],FOXO1 translocation from nucleus to cytosol ([3]; compared to serum-starved control),Kdis (hAng2),Kon (hAng2),Molecule,tumor growth inhibition compared with Fc [1],phosphorylation of Tie2 (Tie2 receptor),co-localization of antibody with Tie2 receptor ([3]; anti-human Fc staining),Tie2 translocation/clustering to cell-cell contact ([3]; antibodies 1 μg/ml with hAng2 1 μg/ml),vascular leakage induced by TNF-α (passage of FITC-dextran) (HUVEC monolayer)
,,,,"N.N.[Cl][Pt][Cl] [Fc+Cpt, Cisplatin, reference compound]",similar,,,,
increased markedly,markedly disappeared in nucleus,1.58e-06 s⁻¹,92900 M⁻¹ s⁻¹,"4B9H11: humanized anti-Ang2 human IgG1 antibody from mouse 4B9; VH SEQ ID NO: 43, VL SEQ ID NO: 44 (antibody, V domains shown, human IgG1 constant regions; VH; VL) VH: QVQLVESGGGLVKPGGSLRLSCAASGFTFSDYYMYWIRQAPGKGLEWVSTISVGGSFTYYPDSVKGRFTISRDNAKNSLYLQMNSLRAEDTAVYYCARDWGLRPWFVYWGQGTLVTVSS VL: DIQMTQSPSSLSASVGDRVTITCKASQDVSTAVAWYQQKPGKAPKLLIYWASTRHTGVPSRFSGSGSGTDFTLTISSLQPEDFATYYCQQHYSTPPTFGQGTKVEIK",,strongly induced in a dose-dependent manner,co-localized with clustered Tie2 receptor at cell-cell contact and endocytosed Tie2 receptor in cytosol,induced Tie2 translocation/clustering to cell-cell contact,significantly inhibited
